Patent US20260217814 (published 2026)
Like-named read-outs stand apart in the source and are kept apart here.

Key:
IL-17F = molecular target: T1, IL-17F (human); assay: competition ELISA
T1 chain: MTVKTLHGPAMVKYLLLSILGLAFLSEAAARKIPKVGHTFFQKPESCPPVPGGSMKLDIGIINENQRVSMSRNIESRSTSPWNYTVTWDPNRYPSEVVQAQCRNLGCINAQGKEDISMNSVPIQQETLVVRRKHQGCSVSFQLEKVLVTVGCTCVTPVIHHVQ

human IL-17A [1] = molecular target: T2, human IL-17A (human); assay: SPR, direct setup
T2 chain: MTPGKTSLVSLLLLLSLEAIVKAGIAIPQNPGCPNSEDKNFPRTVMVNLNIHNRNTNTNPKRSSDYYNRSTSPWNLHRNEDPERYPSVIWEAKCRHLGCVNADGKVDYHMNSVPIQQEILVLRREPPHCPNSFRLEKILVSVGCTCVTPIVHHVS

IL-17C = molecular target: T3, IL-17C (human); assay: competition ELISA
T3 chain: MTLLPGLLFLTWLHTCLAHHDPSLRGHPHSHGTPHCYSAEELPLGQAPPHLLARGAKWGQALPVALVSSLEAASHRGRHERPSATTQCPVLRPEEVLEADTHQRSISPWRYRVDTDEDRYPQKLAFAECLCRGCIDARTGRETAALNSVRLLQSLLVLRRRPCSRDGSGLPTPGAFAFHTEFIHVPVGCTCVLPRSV

IL-17B = molecular target: T4, IL-17B (human); assay: competition ELISA
T4 chain: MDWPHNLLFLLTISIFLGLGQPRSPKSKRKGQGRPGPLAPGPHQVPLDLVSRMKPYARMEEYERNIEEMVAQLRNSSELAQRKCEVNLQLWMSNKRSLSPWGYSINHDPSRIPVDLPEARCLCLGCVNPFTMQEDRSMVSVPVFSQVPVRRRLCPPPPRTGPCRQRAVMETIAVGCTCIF

IL-17E = molecular target: T5, IL-17E (human); assay: competition ELISA
T5 chain: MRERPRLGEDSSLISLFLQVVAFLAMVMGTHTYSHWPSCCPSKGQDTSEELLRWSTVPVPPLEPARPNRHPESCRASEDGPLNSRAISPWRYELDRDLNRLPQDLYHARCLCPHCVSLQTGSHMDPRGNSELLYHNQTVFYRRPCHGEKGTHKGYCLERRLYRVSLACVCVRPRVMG

human IL-17A [2] = molecular target: T2, human IL-17A; assay: SPR, capture setup
IL-17D = molecular target: T6, IL-17D (human); assay: competition
T6 chain: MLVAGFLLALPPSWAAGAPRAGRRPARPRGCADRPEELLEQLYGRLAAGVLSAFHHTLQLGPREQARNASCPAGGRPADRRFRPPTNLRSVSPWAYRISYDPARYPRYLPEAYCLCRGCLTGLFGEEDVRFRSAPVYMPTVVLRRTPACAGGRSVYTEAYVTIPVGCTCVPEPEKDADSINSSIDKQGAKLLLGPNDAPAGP

cynomolgus IL-17A [3] = molecular target: T7, cynomolgus IL-17A (cynomolgus); assay: SPR
T7 chain: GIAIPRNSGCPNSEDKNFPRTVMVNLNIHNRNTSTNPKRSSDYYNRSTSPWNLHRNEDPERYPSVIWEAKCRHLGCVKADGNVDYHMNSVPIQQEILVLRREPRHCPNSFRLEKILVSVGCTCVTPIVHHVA

human serum albumin [4] = molecular target: T8, human serum albumin (human, UniProt P02768); assay: SPR, pH 7.4
cynomolgus serum albumin [5] = molecular target: T9, cynomolgus serum albumin (cynomolgus); assay: SPR, pH 5.5
T9 chain: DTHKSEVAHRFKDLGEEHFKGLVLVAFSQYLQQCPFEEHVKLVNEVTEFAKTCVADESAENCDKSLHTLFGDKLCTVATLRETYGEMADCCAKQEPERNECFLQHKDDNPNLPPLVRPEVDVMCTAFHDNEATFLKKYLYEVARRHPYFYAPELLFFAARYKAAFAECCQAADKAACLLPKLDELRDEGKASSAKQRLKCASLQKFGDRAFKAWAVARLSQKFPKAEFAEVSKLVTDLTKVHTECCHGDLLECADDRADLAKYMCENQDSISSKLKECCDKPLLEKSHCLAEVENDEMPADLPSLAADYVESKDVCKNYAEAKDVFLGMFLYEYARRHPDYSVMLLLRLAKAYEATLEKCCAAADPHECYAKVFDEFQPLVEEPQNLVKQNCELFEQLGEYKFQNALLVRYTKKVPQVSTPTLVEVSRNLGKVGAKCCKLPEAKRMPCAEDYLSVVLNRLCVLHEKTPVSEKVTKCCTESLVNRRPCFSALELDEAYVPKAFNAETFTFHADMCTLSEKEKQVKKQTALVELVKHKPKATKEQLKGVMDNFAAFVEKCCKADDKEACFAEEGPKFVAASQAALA

human serum albumin [6] = molecular target: T8, human serum albumin; assay: SPR, pH 5.5
cynomolgus serum albumin [7] = molecular target: T9, cynomolgus serum albumin; assay: SPR, pH 7.4
cynomolgus IL-17A [8] = molecular target: T7, cynomolgus IL-17A; assay: SPR
human IL-17A [9] = molecular target: T2, human IL-17A; assay: SPR

B1: PRO571 (27-31-C04-sc01) (antibody)
chain: DIQMTQSPSSLSASVGDRVTITCQASESIYRYLSWYQQKPGKAPKLLIYLASTLTSGVPSRFSGSGSGTDFTLTISSLQPEDFATYYCQSNFGTASTTYYNTFGGGTKLTVLGGGGGSGGGGSGGGGSGGGGSEVQLVESGGGLVQPGGSLRLSCAASGFSFSGFYYMCWVRQAPGKGLEWIGCIDTGDGTTYYASWAKGRFTISRDNSKNTVYLQMNSLRAEDTAVYYCARDAAYGGYAYPAHGMDLWGQGTLVTVSS
B1 was tested, and the binding result (IL-17F) was “no binding”, the Kd (human IL-17A [1]) was 40 pM and the binding result (IL-17C) was “no binding”. For the same binder, the binding result (IL-17B) was “no binding”, the binding result (IL-17E) was “no binding” and the Kd (human IL-17A [2]) was 120 pM. For the same binder, the binding result (IL-17D) was “no binding” and the Kd (cynomolgus IL-17A [3]) was 33 pM.

B2: A5 HSA arm (antibody)
chain 1: EVQLVESGGGLVQPGGSLRLSCAASGIDFSTYGISWVRQAPGKGLEWIAYIYPDYGITDYASWVNGRFTISLDNAQNTVYLQMNSLRAEDTAVYYCARSGSYYSRGWGAHYFNLWGQGTLVTVSSASTKGPSVFPLAPSSKSTSGGTAALGCLVKDYFPEPVTVSWNSGALTSGVHTFPAVLQSSGLYSLSSVVTVPSSSLGTQTYICNVNHKPSNTKVDKKVEPKSCGGGGSGGGGSDIQMTQSPSSLSASVGDRVTITCQASQTINYWLAWYQQKPGKAPKLLIYRASTLASGVPSRFSGSGSGTDFTLTISSLQPEDFATYYCQNYYYSTSRSYGFGGGTKLTVLGGGGGSGGGGSGGGGSGGGGSEVQLVESGGGLVQPGGSLRLSCAASGFSFSSDYWMCWVRQAPGKGLEWIGCIYAGDVDDTDYASWARGRFTISRDNSKNTVYLQMNSLRAEDTAVYYCARVDGFDITYFDLWGQGTLVTVSS
chain 2: DIQMTQSPSSLSASVGDRVTINCQASESISSWLAWYQQKPGKRPKLLIYKASTLASGVPSRFSGSGSGTDYTLTISSLQPEDFATYYCQGYYLDSSVDDNVFGGGTKLTVLGRTRTVAAPSVFIFPPSDEQLKSGTASVVCLLNNFYPREAKVQWKVDNALQSGNSQESVTEQDSKDSTYSLSSTLTLSKADYEKHKVYACEVTHQGLSSPVTKSFNRGECGGGGSGGGGSDIQMTQSPSSLSASVGDRVTITCQSSESVYSNNQLSWYQQKPGQPPKLLIYDASDLASGVPSRFSGSGSGTDFTLTISSLQPEDFATYYCAGGFSSSSDTAFGGGTKLTVLGGGGGSGGGGSGGGGSGGGGSEVQLVESGGGLVQPGGSLRLSCAASGFSLSSNAMGWVRQAPGKGLEYIGIISVGGFTYYASWAKGRFTISRDNSKNTVYLQMNSLRAEDTATYFCARDRHGGDSSGAFYLWGQGTLVTVSS
With B2 the Kd (human serum albumin [4]) was 2690 pM, the Kd (cynomolgus serum albumin [5]) was 795 pM and the Kd (human serum albumin [6]) was 1660 pM. For the same binder, the Kd (cynomolgus serum albumin [7]) was 2470 pM.

B3: A5 IL-17A arm (antibody)
chain 1: B2 chain 1
chain 2: B2 chain 2
Work on B3 yielded a Kd (cynomolgus IL-17A [8]) of 523 pM and a Kd (human IL-17A [9]) of 575 pM.
